Assay [1] deals with T1, ANDV Gn^B (Andes virus Gn base domain) (Andes virus, NP_604472.1 (Chile-9717869), UniProt Q9E006).
T1 construct: source: Drosophila S2 cells, purified
The experiment in a line: ELISA. As to conditions: both partners purified.

In assay [2] the target is MAPV Gn^H/Gc (linked Maporal virus Gn head domain and Gc ectodomain) (Maporal virus, strain HV-97021050, UniProt Q5MYC0). The experiment in a line: ELISA. As to conditions: both partners purified. A general note: In an ELISA, binding on a coated surface is turned into a signal by an enzyme label.
Assay [3] addresses T2, ANDV Gc (Andes virus Gc ectodomain) (Andes virus, NP_604472.1 (Chile-9717869), UniProt Q9E006).
T2 construct: source: Drosophila S2 cells, purified
The experiment in a line: ELISA. As to conditions: both partners purified.

The target in assay [4] is T3, ANDV Gn/Gc (Andes virus glycoproteins from the full-length M segment, on the cell surface) (Andes virus, GenBank AF291703.2 …, UniProt Q9E006).
T3 construct: source: Expi293F cells, transfected, on the cell surface
T3 sequence (Q9E006 whole entry, looked up): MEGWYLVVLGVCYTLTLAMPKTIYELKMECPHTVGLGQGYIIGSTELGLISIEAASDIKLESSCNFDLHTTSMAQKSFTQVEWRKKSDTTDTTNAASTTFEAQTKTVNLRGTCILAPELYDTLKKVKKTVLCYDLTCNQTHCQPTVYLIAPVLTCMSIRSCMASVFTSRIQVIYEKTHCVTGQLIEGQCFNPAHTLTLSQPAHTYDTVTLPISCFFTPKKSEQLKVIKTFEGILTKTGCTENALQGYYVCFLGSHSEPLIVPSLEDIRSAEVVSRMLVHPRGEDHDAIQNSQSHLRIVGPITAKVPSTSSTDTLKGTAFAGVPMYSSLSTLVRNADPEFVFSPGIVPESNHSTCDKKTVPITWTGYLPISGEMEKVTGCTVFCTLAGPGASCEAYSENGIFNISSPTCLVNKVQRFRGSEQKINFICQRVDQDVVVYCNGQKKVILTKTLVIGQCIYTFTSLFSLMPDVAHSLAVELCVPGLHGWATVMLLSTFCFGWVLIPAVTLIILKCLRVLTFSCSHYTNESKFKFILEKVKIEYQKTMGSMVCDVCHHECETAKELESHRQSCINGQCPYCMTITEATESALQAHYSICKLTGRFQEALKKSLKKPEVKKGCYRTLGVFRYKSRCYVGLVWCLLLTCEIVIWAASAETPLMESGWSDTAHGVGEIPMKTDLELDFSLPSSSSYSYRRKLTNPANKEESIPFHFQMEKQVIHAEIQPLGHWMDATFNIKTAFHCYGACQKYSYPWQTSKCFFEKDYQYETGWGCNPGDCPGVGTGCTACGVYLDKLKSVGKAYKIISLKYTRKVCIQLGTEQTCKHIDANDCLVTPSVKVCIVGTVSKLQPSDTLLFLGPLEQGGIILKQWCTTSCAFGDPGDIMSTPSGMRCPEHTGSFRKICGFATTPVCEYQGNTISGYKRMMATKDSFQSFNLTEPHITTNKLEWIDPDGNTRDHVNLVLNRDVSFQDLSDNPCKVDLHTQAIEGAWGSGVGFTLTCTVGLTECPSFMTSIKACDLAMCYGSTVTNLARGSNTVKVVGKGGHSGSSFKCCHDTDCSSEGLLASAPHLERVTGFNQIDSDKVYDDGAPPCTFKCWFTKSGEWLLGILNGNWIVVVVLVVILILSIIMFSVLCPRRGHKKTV
The experiment in a line: flow cytometry on cells. As to conditions: one partner purified. (Flow cytometry measures light scatter and fluorescence of single cells or particles in a stream.)

T2 sequence (Q9E006 652-1107): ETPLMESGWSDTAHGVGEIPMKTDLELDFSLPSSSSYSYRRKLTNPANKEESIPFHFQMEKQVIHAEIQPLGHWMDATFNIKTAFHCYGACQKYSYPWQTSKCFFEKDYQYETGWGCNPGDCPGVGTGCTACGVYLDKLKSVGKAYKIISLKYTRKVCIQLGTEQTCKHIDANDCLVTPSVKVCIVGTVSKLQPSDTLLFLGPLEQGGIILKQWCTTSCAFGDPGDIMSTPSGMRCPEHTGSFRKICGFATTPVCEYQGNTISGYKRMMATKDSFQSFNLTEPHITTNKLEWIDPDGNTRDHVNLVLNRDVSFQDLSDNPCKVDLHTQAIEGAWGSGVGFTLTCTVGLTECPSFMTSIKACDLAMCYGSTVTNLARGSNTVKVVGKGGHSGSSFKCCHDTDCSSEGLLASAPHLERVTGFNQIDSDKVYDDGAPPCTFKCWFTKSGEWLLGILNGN
T1 sequence (Q9E006 375-484): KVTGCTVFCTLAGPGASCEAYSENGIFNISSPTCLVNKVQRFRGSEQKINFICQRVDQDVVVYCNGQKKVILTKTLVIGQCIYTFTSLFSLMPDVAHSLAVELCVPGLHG

B1: ANDV-34 (human monoclonal antibody, IgG1) (antibody, V domains shown)
VH: QVHLVQSGGELRKPGSSVKVSCKASGGTFSSFAITWLRQAPGQGLEWVGAYIPVFGSAIHGQKVHGRVTLTADESTTTAYMELSSLRSEDTAVYFCARGPTQNWEYSYYTYFESWGQGTLVTVSS
VL: QIVLTQSPGTLSLSPGERATLSCRASQSVTSRYLAWYQQKPGQAPRLLIYDTSSRATGIPDRFSGSGSETDFTLTISRLAPEDFAVYYCQQYGTSPAVTFGQGTRLEIK
notes: also called rANDV-34; source: ExpiCHO cells, transiently transfected, purified (HiTrap MabSelectSure); copies: 2 + 2
Consider B1, for which the binding result is given as “no binding” in assay [1], “no binding” in assay [2], “no binding” in assay [3] and “binds” in assay [4].

B2: ANDV-5 (human monoclonal antibody, IgG1) (antibody, V domains shown)
VH: QVQLLQSGAEVKKPGSSVRVSCQSSGDIYNYYGISWVRQAPGQGLEWMGGIIPVYGRPNYVQKFRGRVTFTVDKSTSTAYMELSTLRADDTAVYYCARDTARSHYFGSGNDYGMDVWGQGTTVIVSS
VL: DIVMTQSPLSLPVTPGEPASISCRSSQSLLHSNGFNFVDWYLQKPGQSPQLLIYLGSTRASGVPDRFSGSGSGTDFTLEISRVEAEDVGVYYCMQALQFPRTFGQGTKLDIK
notes: also called rANDV-5; ANDV-5 IgG; source: ExpiCHO cells, transiently transfected, purified (HiTrap MabSelectSure); copies: 2 + 2
For B2, the binding result in assay [1] is on record as “no binding”; in assay [2], “binds”; in assay [3], “no binding”; in assay [4], “binds”.

B3: ANDV-5 Fab (Fab, V domains shown)
VH: B2 VH
VL: B2 VL
notes: also called Fab ANDV-5; Fab form of ANDV-5; source: ExpiCHO cells, transiently transfected, purified (CaptureSelect CH1-XL)
Turning to B3, in assay [4], the binding result is reported as “binds”.

Values taken from publication PMC10115451 (eLife, 2023).
